Aggregate-containing HEK293 biosensor cells (punctate fluorescence after 48 h) on treatment with preformed heparin-induced tauP301L fibrils data for 1 substance are collected here from patent US20240116984A1, “MODIFIED PEPTIDES FOR THE INHIBITION OF ABNORMAL TAU ACCUMULATION” (University of Notre Dame du Lac, priority 2021, published 2024).

For the assay, the target named is tau-RD (P301L/V337M)-YFP, stably expressed in HEK293 biosensor cells (UniProt P10636). The experiment in a line: cell-based or functional assay.
Chain of tau-RD (P301L/V337M)-YFP, stably expressed in HEK293 biosensor cells (P10636 561-689 P618L/V654M): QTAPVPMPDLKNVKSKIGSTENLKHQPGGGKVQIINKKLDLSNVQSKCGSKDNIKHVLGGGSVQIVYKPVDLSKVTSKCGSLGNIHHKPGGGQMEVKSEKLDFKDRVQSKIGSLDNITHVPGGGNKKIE

For the substance “Human tauP301L (0N4R), recombinant, N-terminal His tag (from UniProt P10636 2-758)”, the aggregate-containing HEK293 biosensor cells (punctate fluorescence after 48 h) on treatment with preformed heparin-induced tauP301L fibrils is 38%.
